# In PMC11701102, “Structural insights into the interplay between microtubule polymerases, γ-tubulin complexes and their receptors” (Nature Communications, 2025):
# T1: His-Spc72^1-599 (C. albicans), co-expressed in insect cells (C. albicans, UniProt Q5AGV5 1-599)
# T1 construct: Only the CM1 motif is resolved in the cryo-EM map, as a parallel dimeric coiled coil; source: Sf21 insect cells, MultiBac co-expression with γ-TuSC components and FLAG-Stu2 or His-GFP-Mzt1
# T1 sequence (looked up): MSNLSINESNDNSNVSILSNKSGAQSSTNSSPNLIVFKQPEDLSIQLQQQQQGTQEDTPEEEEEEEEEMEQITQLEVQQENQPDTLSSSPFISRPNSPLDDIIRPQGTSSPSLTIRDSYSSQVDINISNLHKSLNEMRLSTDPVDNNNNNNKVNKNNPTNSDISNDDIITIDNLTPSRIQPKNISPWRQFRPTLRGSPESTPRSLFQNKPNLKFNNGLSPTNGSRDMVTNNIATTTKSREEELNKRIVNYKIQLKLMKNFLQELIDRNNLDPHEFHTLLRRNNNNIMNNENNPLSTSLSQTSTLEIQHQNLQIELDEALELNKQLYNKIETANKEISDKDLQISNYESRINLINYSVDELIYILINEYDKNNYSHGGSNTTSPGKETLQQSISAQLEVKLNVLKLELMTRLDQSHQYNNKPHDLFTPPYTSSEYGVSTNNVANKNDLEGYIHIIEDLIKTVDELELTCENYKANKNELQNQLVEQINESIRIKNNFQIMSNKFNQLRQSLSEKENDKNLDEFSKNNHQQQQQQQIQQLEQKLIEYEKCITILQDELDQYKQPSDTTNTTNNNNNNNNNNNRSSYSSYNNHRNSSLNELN
# Tests used:
# [1] = molecular target: the molecule itself; assay: SEC-MALS + other: mass photometry; FLAG-Stu2 (10 µM) and His-Spc72^291-599 (60 µM) alone or mixed 1:1 (vol), Superdex 200 Increase 5/150, 50 mM Tris-HCl pH 7.5, 150 mM NaCl, room temperature; mass photometry below 40 nM
# [2] = molecular target: T1, His-Spc72^1-599 (C. albicans), …; assay: SEC; FLAG-purified γ-TuSC/His-Spc72^1-599/FLAG-Stu2 on Superose 6 Increase 10/300 in HB100 buffer (40 mM K-HEPES pH 7.4, 100 mM KCl); fractions by SDS-PAGE, Western blot and gel densitometry; ring-like oligomers also seen by negative stain EM; conditions: both partners purified
binder,measurement,setting,value
"FLAG-Stu2 (C. albicans, full length) (natural protein, UniProt A0A1D8PTZ8 1-924, looked up, Stu2, C. albicans, full-length Met1 to Glu924; FLAG tag followed by an HRV 3C cleavage site at the 5' end; also called wild-type FLAG-Stu2; source: Sf21 insect cells; not shown: FLAG, N-terminal, kept) MSTEEEDYSNLSLEERFVHKVWKVRLQAYEELATNIENSRNESDPIFTSLSLDNLKKMILDSNVVAQETGYNTFNKFLIFGGNAANVSKLKNLGIIGSICEKGLLSSRKNTKEWSVESILLMIEISNDPNSIVEDILPYLTNRLPKLVTGCVSCLASIIENFGCKIISPKPIVPCLSKLFAHADKNVRNETTKLTIELYRWMGDALINALFSDLKPVQQKDLTAAFEKEKGTSPQQKRYTKKQREEIERREQEAAAAAAAAAATTAGNGGGNGDDVDDVEMSDVNGVTDDNEYDPLEFVDPVEVLNKFPSDFDSRISSSKWKDRKEVLEEIIPILEKSPKLITTDDYLPVLRIWAKCMKDANIQVVQLAANCIEFVIKGLGNEFSKYQSVVLTPVVERLKEKKPSVATALDNVLDALFNLSGFGNGVLDEAINGMKLKTPQNKIASANFVKRCLSTTKIPPKTSEIDAIMEVGIKLLSESQEPIRQAATEMIGTLMKITGPRELKPFLEKVDENRKNKINDYYEETAQVKTTMANASKSSSVASGSRNVSTAGGSFSSSTMKPPSKSSQDRKTSSGASSIIPAKRTASSPAKRDEVKNGRGMTARSLAKPNIPSLRPPTNVTQDSSGDGSSFSQQQQQQQVPSTSTGGGSGGAQSMISSVTNEEVNLLKQQIIKLQEEVQNYKNQQESHLKTIKLLEESNNNYREEIESVKRELSNEKRNATITTNHKDTHINNLKSELEKANYRIKDLEQEREINRLQQSNLAFERSNISSSNSRNSFYKPSPNKFAPSDISTGVKRLSIGGEENNHFGGGGGASPNFHNNTIHSTNTTTSTTATASGAGIGTGVGTGTGTGTGTGMGISRPTNSFRSSVNYGSTSSLTSSSRRESMDIDNGADWKRAAEVTLQLKARIERMKARTRSPLNIE",stoichiometry N,[1],2
same,stoichiometry N,[2],< 2 Stu2 dimers per Spc72 dimer
